Test results taken from publication doi:10.1101/2020.10.06.327627 (bioRxiv, 2020).

Target: T1, human TRAP1 (mitochondrial Hsp90) (human, UniProt Q12931 60-704)
T1 sequence (looked up): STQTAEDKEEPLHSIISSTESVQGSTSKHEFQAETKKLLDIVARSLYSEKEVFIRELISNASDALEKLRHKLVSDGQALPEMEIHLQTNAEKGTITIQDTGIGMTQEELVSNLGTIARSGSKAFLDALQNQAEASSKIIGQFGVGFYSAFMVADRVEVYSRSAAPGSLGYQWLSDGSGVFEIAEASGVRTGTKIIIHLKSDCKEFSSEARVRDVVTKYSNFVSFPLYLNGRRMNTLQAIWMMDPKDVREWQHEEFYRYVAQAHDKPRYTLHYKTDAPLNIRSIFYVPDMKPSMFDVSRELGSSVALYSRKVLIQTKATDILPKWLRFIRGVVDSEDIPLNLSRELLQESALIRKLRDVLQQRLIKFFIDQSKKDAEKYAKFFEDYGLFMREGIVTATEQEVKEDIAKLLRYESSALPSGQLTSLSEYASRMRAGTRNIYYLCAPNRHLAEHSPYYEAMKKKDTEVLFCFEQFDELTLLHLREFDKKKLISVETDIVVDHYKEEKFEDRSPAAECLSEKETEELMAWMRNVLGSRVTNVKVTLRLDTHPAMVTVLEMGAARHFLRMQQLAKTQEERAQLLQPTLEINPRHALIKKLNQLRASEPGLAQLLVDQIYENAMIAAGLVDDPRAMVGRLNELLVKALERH
Assay: cell-based or functional assay

B1: SdhB160 (truncated human succinate dehydrogenase B subunit, truncated at K160) (domain or fragment, UniProt P21912 29-160, looked up)
chain: AQTAAATAPRIKKFAIYRWDPDKAGDKPHMQTYEVDLNKCGPMVLDALIKIKNEVDSTLTFRRSCREGICGSCAMNINGGNTLACTRRIDTNLNKVSKIYPLPHMYVIKDLVPDLSNFYAQYKSIEPYLKKK
acceleration of TRAP1 ATPase activity, EC50: 6.6 µM
acceleration of TRAP1 dimer closure, inter-protomer FRET assay, EC50: 3.6 µM
